± gives the uncertainty stated by the source.

This data set can be described thus: amyloid nucleation score (Sup35N fusion, yeast selection) (log enrichment); library NNK1; higher = more nucleation; inactive = no reads after selection. A digest of the protocol: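 Three technical output replicates were used for random libraries. Psi-negative yeast expressing peptides of 20 random codons fused to Sup35N were induced with 100 μM copper sulfate for 24 hours and grown 7 days at 30°C on medium lacking adenine and uracil, and input and output plasmid inserts were Illumina-sequenced, excluding sequences with under 100 input reads. The nucleation score is the DiMSum log enrichment of output over input reads, centred on the mode score of non-aggregating sequences.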
Substance VVQGCIYYCHNVWYLDVFSF yielded an amyloid nucleation score of 4.62 ± 0.089.

Consider VVSDNSMDV, for which the amyloid nucleation score amounted to 0.39 ± 0.47.

VVSVMLAFYTKDSFVVWLNL displayed an amyloid nucleation score of 1.02 ± 0.15.

For the substance VVTQLLEFVSITSEGWSQHM, the amyloid nucleation score worked out at 2.57 ± 0.096.

Take VVVFSTF: the amyloid nucleation score was -0.376 ± 1.4. In the case of VVVFVSE it was 0.997 ± 0.65; in that of VVVIFLHGIWCGLRL, -0.208 ± 0.75. The value for VVVRLRFRNSIPSILSQR was -0.304 ± 0.71; that for VWCVFFLVLYFYR was 0.422 ± 0.57; that for VWEFD was -0.537 ± 0.42.

As for VWFRCWSPEVENGHVCLSCS, the amyloid nucleation score is -0.026 ± 0.41.

Turning to VWFYRLIVSEVGFFRVKLKM, the amyloid nucleation score was -1.58 ± 1.4. In the case of VWGDRWTTVSGRSAEYRTKS it was 1.34 ± 0.15; in that of VWLGTEFFVSCLACMLVSVL, -1.05 ± 0.54; in that of VWRSVSRCSCVSSSIGGVTV, -0.868 ± 0.39. Regarding VWSILCMCNRSHLWVKSSKR, the amyloid nucleation score worked out at 0.988 ± 0.35.

The substance VWTSWDGRSLIAEWVCYLE displayed an amyloid nucleation score of 6.232 ± 0.048. Consider VYFIRIHLLFRHRTGGICNT, for which the amyloid nucleation score came out at 1.06 ± 0.72. The value for VYITVFMIAYMLLSDTDHE was 0.377 ± 0.31; that for VYRTNLSINSTFIWTHELRS was 0.525 ± 0.18. In the case of VYSRSWPGFLKWLLASIFF it was 0.694 ± 1.2; in that of WASFGPLGAQVPDRRFIYMP, 0.151 ± 0.81. In the case of WAVSGVDKVTRLGSEGVMQS it was -0.809 ± 0.9. As to WCGVFESGNRPKSQGKGSKW, the amyloid nucleation score was 0.159 ± 0.55. In the case of WCSAMKISTRAPRWENIWSM it was 0.612 ± 0.62.

In the case of WCSNVNFDVRVDNIKSFRWF, the amyloid nucleation score stood at 5.864 ± 0.053.

The substance WDETY gave an amyloid nucleation score of 4.62 ± 0.07. The value for WDRTTCVYSLLPMGNSPKVE was 0.144 ± 0.45; that for WDTDVLRDNWSQLRFLVSGR was -0.216 ± 0.21. In the case of WDWSERLQAFWSVTLSSNSW it was 0.517 ± 0.71; in that of WEYEAGNFDSVMMVLLLSCY, 1.25 ± 0.61. The value for WFAGAGLIMRNVRSGW was -0.126 ± 0.66. In the case of WFTDGT, the amyloid nucleation score entry was “inactive”. In the case of WFTGGFRVIMGS it was 0.728 ± 0.97. Take WFWLIRMYMSFYVVAFVGSG: the amyloid nucleation score amounted to 1.31 ± 0.74. In the case of WGRMV it was 0.248 ± 0.74; in that of WHEWNSVEWVGRSWTTDFEW, “inactive”; in that of WHSMKMCF, 0.115 ± 0.45. In the case of WHSSSLMWHNKLS it was “inactive”; in that of WHWVAEWSMRTYSGLSIECY, “inactive”. The value for WHYNMLYCLLRRSRLCWNIV was -0.403 ± 0.48; that for WIAFERPAYVDSWHLTRNRP was 0.109 ± 0.24. As to WILVGMGLGFHFFW, the amyloid nucleation score was determined as 0.86 ± 1.1. WISFYSPCMGRAISLSVVDV registered an amyloid nucleation score of 0.68 ± 0.54. In the case of WLAHRNWLC it was 0.103 ± 0.7; in that of WLKVGGEFSWSVQSVY, 0.071 ± 0.55; in that of WLKVRNTR, -0.178 ± 0.49. The value for WLLVNMDDYLAGYCITHFRN was -0.359 ± 0.58. Turning to WLTRFRRGAACRDLLWRGER, the amyloid nucleation score is -0.096 ± 1.4. As for WLTTGFLFVKLGGHKESSVQ, the amyloid nucleation score turned out to be 0.015 ± 0.33.

Take WMAFWGWVLYYFSFHFTFNV: the amyloid nucleation score was found to be 0.079 ± 0.48. In the case of WMFMNLVGVMFDGHGPGGSA it was 1.66 ± 0.28; in that of WNRYWNLFYRGTLDSTAIGS, -1.76 ± 2.4; in that of WNSSYDGRFIAYAMQWSNKE, -0.118 ± 0.48. The substance WPLLPVELNVSTRHENGLLM registered an amyloid nucleation score of 1.4 ± 0.34. The value for WPLRESCGICERRAWCRSAY was 0.923 ± 0.63. For WPWNEPY, the amyloid nucleation score was -0.251 ± 0.48.

Source of the values: the supplement of paper PMC12042874.
